Measurements taken from article PMC3777854 (Journal of clinical pharmacology, 2013).
“Also recorded” adds a separate entry of the source.

Columns and labels:
CYP3A [1] = assay: Effect of brentuximab vedotin on midazolam PK
CYP3A [2] = assay: Effect of ketoconazole on brentuximab vedotin; type: in vivo, human; conditions: geometric mean (%CV); for ADC Cmax: serum, n=16
[3] = tested on: antitherapeutic antibodies (ATA); assay: Antitherapeutic antibodies; type: in vivo, human
[4] = Safety assessments: adverse events and laboratory abnormalities; type: in vivo, human
[5] = tested on: relapsed/refractory systemic ALCL; conditions: 1.8 mg/kg IV every 3 weeks for up to 16 cycles; cited from earlier work
CYP3A [6] = assay: Effect of rifampin on brentuximab vedotin; type: in vivo, human; conditions: brentuximab vedotin 1.8 mg/kg alone, geometric mean (%CV), n=11

Cc1ncc2n1-c1ccc(Cl)cc1C(c1ccccc1F)=NC2 [Midazolam, midazolam]
Tmax (CYP3A [1]; human, plasma, intravenous): 2.52 min | half-life (CYP3A [1]; human, plasma, intravenous): 341 min | Tmax (CYP3A [1]; human, plasma, intravenous, 1 mg): 3 min | AUC(0-inf) (CYP3A [1]; human, plasma, iv, 1 mg): 79 ng·h/mL | Cmax (CYP3A [1]; human, plasma, iv, 1 mg): 73 ng/mL | half-life (CYP3A [1]; human, plasma, iv, 1 mg): 384 min

brentuximab vedotin: ADC directed to human CD30: MMAE conjugated to the anti-CD30 antibody cAC10 through a protease-cleavable linker
ADC t1/2 (CYP3A [2]; brentuximab vedotin 1.2 mg/kg alone, n=11): 5.70 (33) d | ADC Cmax (CYP3A [2]; brentuximab vedotin 1.2 mg/kg alone): 22.57 (23) μg/mL | ADC Cmax (CYP3A [2]; brentuximab vedotin 1.2 mg/kg with ketoconazole): 22.38 (70) μg/mL | patients with at least 1 positive postbaseline ATA result ([3]; PK-evaluable patients in the ketoconazole arm): 8 of 16 | patients with at least 1 positive postbaseline ATA result ([3]; PK-evaluable patients in the rifampin arm): Five of 14 | patients free of confirmed ATA at baseline but positive at one or both postbaseline timepoints ([3]; all patients): Eighteen | titers of all confirmed positive ATA results ([3]; with one exception (one patient 3125 prior to second dose)): ≤ 125 | Adverse events: Any event ([4]; Ket arm, both cycles (n = 19)): 19 (100) n (%) | Adverse events: Diarrhea ([4]; Ket arm, both cycles (n = 19)): 6 (32) n (%) | Adverse events: Fatigue ([4]; Ket arm, both cycles (n = 19)): 8 (42) n (%) | Adverse events: Headache ([4]; Ket arm, both cycles (n = 19)): 4 (21) n (%) | Adverse events: Nausea ([4]; Ket arm, both cycles (n = 19)): 9 (47) n (%) | Adverse events: Neutropenia ([4]; Ket arm, both cycles (n = 19)): 3 (16) n (%) | Adverse events: Pruritis ([4]; Ket arm, both cycles (n = 19)): 4 (21) n (%) | Adverse events: Pyrexia ([4]; Ket arm, both cycles (n = 19)): 7 (37) n (%) | Adverse events: Vomiting ([4]; Ket arm, both cycles (n = 19)): 6 (32) n (%) | Adverse events: Any event ([4]; Ket arm, post-ket (N = 19)): 16 (84) n (%) | Adverse events: Diarrhea ([4]; Ket arm, post-ket (N = 19)): 6 (32) n (%) | Adverse events: Fatigue ([4]; Ket arm, post-ket (N = 19)): 5 (26) n (%) | Adverse events: Headache ([4]; Ket arm, post-ket (N = 19)): 4 (21) n (%) | Adverse events: Nausea ([4]; Ket arm, post-ket (N = 19)): 5 (26) n (%) | Adverse events: Neutropenia ([4]; Ket arm, post-ket (N = 19)): 3 (16) n (%) | Adverse events: Pruritis ([4]; Ket arm, post-ket (N = 19)): 3 (16) n (%) | Adverse events: Pyrexia ([4]; Ket arm, post-ket (N = 19)): 2 (11) n (%) | Adverse events: Vomiting ([4]; Ket arm, post-ket (N = 19)): 6 (32) n (%) | Adverse events: Any event ([4]; Ket arm, pre-ket (N = 19)): 16 (84) n (%) | Adverse events: Diarrhea ([4]; Ket arm, pre-ket (N = 19)): 1 (5) n (%) | Adverse events: Fatigue ([4]; Ket arm, pre-ket (N = 19)): 4 (21) n (%) | Adverse events: Headache ([4]; Ket arm, pre-ket (N = 19)): 0 n (%) | Adverse events: Nausea ([4]; Ket arm, pre-ket (N = 19)): 5 (26) n (%) | Adverse events: Neutropenia ([4]; Ket arm, pre-ket (N = 19)): 0 n (%) | Adverse events: Pruritis ([4]; Ket arm, pre-ket (N = 19)): 1 (5) n (%) | Adverse events: Pyrexia ([4]; Ket arm, pre-ket (N = 19)): 6 (32) n (%) | Adverse events: Vomiting ([4]; Ket arm, pre-ket (N = 19)): 3 (16) n (%) | Adverse events: Any event ([4]; Mid arm, both cycles (n = 16)): 14 (88) n (%) | Adverse events: Diarrhea ([4]; Mid arm, both cycles (n = 16)): 3 (19) n (%) | Adverse events: Fatigue ([4]; Mid arm, both cycles (n = 16)): 3 (19) n (%) | Adverse events: Headache ([4]; Mid arm, both cycles (n = 16)): 4 (25) n (%) | Adverse events: Nausea ([4]; Mid arm, both cycles (n = 16)): 2 (13) n (%) | Adverse events: Neutropenia ([4]; Mid arm, both cycles (n = 16)): 1 (6) n (%) | Adverse events: Pruritis ([4]; Mid arm, both cycles (n = 16)): 1 (6) n (%) | Adverse events: Pyrexia ([4]; Mid arm, both cycles (n = 16)): 0 n (%) | Adverse events: Vomiting ([4]; Mid arm, both cycles (n = 16)): 2 (13) n (%) | Adverse events: Any event ([4]; Rif arm, Cycle 1 (N = 21)): 18 (86) n (%) | Adverse events: Diarrhea ([4]; Rif arm, Cycle 1 (N = 21)): 2 (10) n (%) | Adverse events: Fatigue ([4]; Rif arm, Cycle 1 (N = 21)): 1 (5) n (%) | Adverse events: Headache ([4]; Rif arm, Cycle 1 (N = 21)): 3 (14) n (%) | Adverse events: Nausea ([4]; Rif arm, Cycle 1 (N = 21)): 6 (29) n (%) | Adverse events: Neutropenia ([4]; Rif arm, Cycle 1 (N = 21)): 6 (29) n (%) | Adverse events: Pruritis ([4]; Rif arm, Cycle 1 (N = 21)): 3 (14) n (%) | Adverse events: Pyrexia ([4]; Rif arm, Cycle 1 (N = 21)): 6 (29) n (%) | Adverse events: Vomiting ([4]; Rif arm, Cycle 1 (N = 21)): 2 (10) n (%) | Adverse events: Any event ([4]; Rif arm, Cycle 2 (N = 20)): 17 (85) n (%) | Adverse events: Diarrhea ([4]; Rif arm, Cycle 2 (N = 20)): 3 (15) n (%) | Adverse events: Fatigue ([4]; Rif arm, Cycle 2 (N = 20)): 4 (20) n (%) | Adverse events: Headache ([4]; Rif arm, Cycle 2 (N = 20)): 2 (10) n (%) | Adverse events: Nausea ([4]; Rif arm, Cycle 2 (N = 20)): 2 (10) n (%) | Adverse events: Neutropenia ([4]; Rif arm, Cycle 2 (N = 20)): 5 (25) n (%) | Adverse events: Pruritis ([4]; Rif arm, Cycle 2 (N = 20)): 2 (10) n (%) | Adverse events: Pyrexia ([4]; Rif arm, Cycle 2 (N = 20)): 0 n (%) | Adverse events: Vomiting ([4]; Rif arm, Cycle 2 (N = 20)): 1 (5) n (%) | Adverse events: Any event ([4]; Rif arm, both cycles (n = 21)): 20 (95) n (%) | Adverse events: Diarrhea ([4]; Rif arm, both cycles (n = 21)): 4 (19) n (%) | Adverse events: Fatigue ([4]; Rif arm, both cycles (n = 21)): 5 (24) n (%) | Adverse events: Headache ([4]; Rif arm, both cycles (n = 21)): 5 (24) n (%) | Adverse events: Nausea ([4]; Rif arm, both cycles (n = 21)): 6 (29) n (%) | Adverse events: Neutropenia ([4]; Rif arm, both cycles (n = 21)): 7 (33) n (%) | Adverse events: Pruritis ([4]; Rif arm, both cycles (n = 21)): 4 (19) n (%) | Adverse events: Pyrexia ([4]; Rif arm, both cycles (n = 21)): 6 (29) n (%) | Adverse events: Vomiting ([4]; Rif arm, both cycles (n = 21)): 2 (10 n (%) | Adverse events: Any event ([4]; Total, both cycles (N = 56)): 53 (95) n (%) | Adverse events: Diarrhea ([4]; Total, both cycles (N = 56)): 13 (23) n (%) | Adverse events: Fatigue ([4]; Total, both cycles (N = 56)): 16 (29) n (%) | Adverse events: Headache ([4]; Total, both cycles (N = 56)): 13 (23) n (%) | Adverse events: Nausea ([4]; Total, both cycles (N = 56)): 17 (30) n (%) | Adverse events: Neutropenia ([4]; Total, both cycles (N = 56)): 11 (20) n (%) | Adverse events: Pruritis ([4]; Total, both cycles (N = 56)): 9 (16) n (%) | Adverse events: Pyrexia ([4]; Total, both cycles (N = 56)): 13 (23) n (%) | Adverse events: Vomiting ([4]; Total, both cycles (N = 56)): 10 (18) n (%) | treatment-emergent peripheral neuropathy ([4]; all patients (N = 56), 2 treatment cycles): 18% | low hemoglobin, change from Grade 1 or 2 to ≥ Grade 3 ([4]; all patients, 5 patients): 9% | low lymphocyte counts, change from Grade 1 or 2 to ≥ Grade 3 ([4]; all patients, 5 patients): 9% | low platelet counts, change from Grade 1 or 2 to ≥ Grade 3 ([4]; all patients, 5 patients): 9% | elevated ALT, change from Grade 1 or 2 to ≥ Grade 3 ([4]; all patients, 6 patients): 11% | low white blood cell count, change from Grade 1 or 2 to ≥ Grade 3 ([4]; all patients, 7 patients): 13% | peripheral neuropathy events ([4]; ketoconazole arm, after ketoconazole, 1 patient): 5% | elevated AST (adverse event) ([4]; ketoconazole arm, after ketoconazole, 2 patients): 11% | incidence of adverse events ≥ Grade 3 ([4]; ketoconazole arm, before ketoconazole dosing, 4 patients): 21% | elevated AST (adverse event) ([4]; ketoconazole arm, before ketoconazole, 1 patient): 5% | peripheral neuropathy events ([4]; ketoconazole arm, before ketoconazole, 2 patients): 11% | elevated ALT (adverse event) ([4]; ketoconazole arm, both before and after ketoconazole, 1 patient): 5% | inhibition or induction of CYP3A in humans (conclusion) (CYP3A [1]; brentuximab vedotin 1.8 mg/kg, midazolam as probe substrate): neither inhibitors nor inducers of CYP3A; also recorded: neither inhibit nor induce CYP3A | objective response rate [5]: 86% | ADC t1/2 (CYP3A [6]): 5.87 (66) d | ADC Cmax (CYP3A [6]; serum): 36.74 (34) μg/mL
